B1: NIV-10 Fab (Fab, V domains shown)
VH: EVQLVESGGGLVQPGGSLRLSCAASGFTFYSYWMTWVRQAPGKGLEWVANIKHDESESHYVDSVRGRFTISRDNAKNSVYLQMKGLRAEDTAVYYCARDGGYNILTAYYHAPSYWGQGTLVTVSS
VL: QSALTQPASVSGSPGQSITISCTGTSSDVGGYNFVSWYRQYPGKAPQLMIYDVSRRPSGDSDRFSGSKSGNTASLTISGLQAEDEAEYHCSSYTGRSPYVVFGGGTKVTVL
B2: NIV-11 Fab (Fab, V domains shown)
VH: QLVQSGPEVKKPGTSVKVSCKASGFTFYYSAVQWVRQARGQRLEWLGWMAVGSGKANYAQKFQERLTLTRDMSTSTAYMELSSLRSEDTAVYYCAAPNCTGGSCYDGFNLWGQGTVVTVSS
VL: EIVLTQSPGTLSLSPGDRAILSCRASQTVNSNYLAWYQQKPGQAPRLLIYGTSSRATGIPDRFSGSGSGTDFTLTISRLEPEDFAVYYCQQYGSSPWLFGQGTKVEIK
B3: NIV-13 Fab (Fab, V domains shown)
VH: EVQLLESGGGLVQPGGSLRLSCAASGFTFSRYALSWVRQAPGKGLEWVSAISGAAITTYYADSVKGRFTISRDDSRNTLFMQMDSLRAEDTAVYYCAKGDYYDSSGYLAEYFPHWGQGTLVTVSS
VL: SYELTQPPSVSVSPGQTARITCFADALPKQHAYWYQQKAGQAPVLVIFKDTERPSGIPKRFSGSRSGATVTLTISGVQAEDEADYYCQSTDISGVLFGGGTKLTVL
B4: NIV-8 Fab (Fab, V domains shown)
VH: EVQLVESGGGVVQPGRSLRLSCAASGFKFSKFAMHWVRQAPGKGPEWVAVISYDGNQYHSADSVKGRFTISRDNSFNTLYLQMNSLGPEDTAVYYCARDGPDTSGYYANIYFDFWGQGTLVTVSS
VL: QSVLTQPPSVSGAPGQRVTISCTGSSSNIGAGYDVHWYQQLPGRAPKLLIFDNNNRPSGVPDRFSGSKSGTSASLAITGLQTEDEAYYYCQSYDNSLILAVFGGGTKVTVL

What follows are binders tested against SARS-CoV-2 spike receptor-binding domain, Omicron BA.2 variant (amino acids 331-529), biotinylated (SARS-CoV-2 Omicron BA.2, G504D | S371F | S375F | T376A | D405N | R408S | K417N | N440K | S477N | T478K | …, biotin (RBD expression vector co-expressed with BirA-Flag, 100 μM biotin added)) (assay: BLI). Conditions: both partners purified.

Binder	Kd [nM]	koff [s⁻¹]	kon [M⁻¹ s⁻¹]
B1	76.1	0.0064	84100
B2	11	0.00355	322000
B3	1.49	0.000369	247000
B4	20	0.00206	103000

Each binder was assayed against SARS-CoV-2 spike receptor-binding domain, Delta variant (amino acids 331-529), biotinylated (SARS-CoV-2, Delta, L452R | T478K, biotin (RBD expression vector co-expressed with BirA-Flag, 100 μM biotin added)) (assay: BLI). Conditions: both partners purified.

Binder	Kd [nM]	koff [s⁻¹]	kon [M⁻¹ s⁻¹]
B1	0.00371	1.31e-06	354000
B2	0.00478	5.08e-07	106000
B3	0.0919	3.72e-05	405000
B4	0.00475	1.28e-06	269000

Each binder was assayed against SARS-CoV-2 spike receptor-binding domain, Omicron BA.1 variant (amino acids 331-529), biotinylated (SARS-CoV-2, Omicron BA.1, G339D | S371L | S373P | S375F | K417N | N440K | G446S | S477N | T478K | E484A | …, biotin (RBD expression vector co-expressed with BirA-Flag, 100 μM biotin added)) (assay: BLI). Conditions: both partners purified.

Binder	Kd [nM]	koff [s⁻¹]	kon [M⁻¹ s⁻¹]
B1	96.6	0.0124	129000
B2	9.14	0.00335	366000
B3	0.802	0.000248	309000
B4	24.7	0.00312	126000
